Data taken from patent publication US7235629B2, “Functional fragment of the leptin receptor” (Vlaams Interuniversitair Instituut voor Biotechnologie VZW, priority 2000, dated 2007).
Each block holds one molecule with its values, some of them ahead of it.

What was measured:
FLAG-tagged SOCS3 = biological target: T1, FLAG-tagged SOCS3 (Rattus norvegicus, UniProt O88583); assay: Phosphopeptide affinity chromatography with anti-FLAG Western blot: SOCS3 binding to biotinylated leptin receptor peptides; settings: lysates of about 3×10^7 HEK293T cells transfected with pMET7-fSOCS3; 5 nmoles biotinylated peptide on streptavidin-agarose; two hours at 4° C.
T1 construct: expressed in transfected cells; host or cells: HEK293T cells (transient transfection; cleared lysate used)
T1 sequence (O88583 1-225): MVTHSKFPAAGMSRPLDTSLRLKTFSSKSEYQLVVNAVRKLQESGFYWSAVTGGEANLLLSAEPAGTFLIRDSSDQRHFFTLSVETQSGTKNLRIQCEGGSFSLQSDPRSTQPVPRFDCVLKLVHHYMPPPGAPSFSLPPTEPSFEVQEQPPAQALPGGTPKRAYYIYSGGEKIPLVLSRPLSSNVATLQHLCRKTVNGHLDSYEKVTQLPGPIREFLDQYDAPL
Description: Monoclonal anti-FLAG antibody M2 was obtained from Sigma. Mouse recombinant leptin was purchased from R&D Systems. Peptides were synthesized using standard Fmoc-amino-acid solid phase chemistry on an Applied Biosystems Model 431A peptide synthesizer. Biotin was manually esterified following similar procedures as on the synthesizer and added to the reaction mixture. Incorporation of phosphotyrosine was realized by using a protected Fmoc-tyrosine-phosphobenzylester (Novabiochem). After purification, the mass of the peptides was confirmed by mass spectrometry. Sequences of the peptides were biotin-QRQPSVK(p)Y985ATLVSNDK (SEQ ID NO:7) and biotin-NHREKSVC(p)Y1077 LGVTSVNR (SEQ ID NO:8).
Approximately 10^6 HEK293T cells were lysed in 150 μl 2× loading buffer. After sonication, 30 μl was loaded on a 10% polyacrylamide gel. […] Blotting efficiency was checked using PonceauS staining (Sigma).
For phosphopeptide affinity chromatography, approximately 3×10^7 HEK293T cells transiently transfected as indicated were lysed in lysis buffer (20 mM Hepes pH 7; 1 mM MgCl2; 10 mM KCl; 0.5 mM DTT; 150 mM NaCl; 0.5% NP40; 1 mM NaVO4; 5 mM NaF; 20% glycerol; Complete™ Protease Inhibitor Cocktail (Roche)). Precipitated material was cleared by 5 minutes centrifugation at 10,000 g. To eliminate a-specific interactions, supernatants were brought on a pre-column containing Sepharose 4B beads prior to phosphopeptide affinity chromatography on streptavidin-coupled agarose beads (Sigma). Peptide concentrations were determined by a colorimetric assay using alkaline hydrolysis and a ninhydrine reagent. Fifty μl of streptavidin-agarose slurry was incubated with 5 nmoles of peptide for each reaction. Cleared lysate was incubated for two hours at 4° C. under slow stirring. […]
The interaction sites of SOCS3 with the leptin receptor were confirmed using a biochemical approach. FLAG-tagged SOCS3 was expressed upon transient transfection of pMET7-fSOCS3 in HEK293T cells and was analyzed for binding to (phospho)-tyrosine-containing peptides matching the two motifs within the leptin receptor. […]

[1] = biological target: murine leptin receptor, long isoform, wild type (mouse), P48356; assay: cell-based or functional assay
murine leptin receptor, long isoform, wild type (mouse), P48356, sequence (P48356 22-1162): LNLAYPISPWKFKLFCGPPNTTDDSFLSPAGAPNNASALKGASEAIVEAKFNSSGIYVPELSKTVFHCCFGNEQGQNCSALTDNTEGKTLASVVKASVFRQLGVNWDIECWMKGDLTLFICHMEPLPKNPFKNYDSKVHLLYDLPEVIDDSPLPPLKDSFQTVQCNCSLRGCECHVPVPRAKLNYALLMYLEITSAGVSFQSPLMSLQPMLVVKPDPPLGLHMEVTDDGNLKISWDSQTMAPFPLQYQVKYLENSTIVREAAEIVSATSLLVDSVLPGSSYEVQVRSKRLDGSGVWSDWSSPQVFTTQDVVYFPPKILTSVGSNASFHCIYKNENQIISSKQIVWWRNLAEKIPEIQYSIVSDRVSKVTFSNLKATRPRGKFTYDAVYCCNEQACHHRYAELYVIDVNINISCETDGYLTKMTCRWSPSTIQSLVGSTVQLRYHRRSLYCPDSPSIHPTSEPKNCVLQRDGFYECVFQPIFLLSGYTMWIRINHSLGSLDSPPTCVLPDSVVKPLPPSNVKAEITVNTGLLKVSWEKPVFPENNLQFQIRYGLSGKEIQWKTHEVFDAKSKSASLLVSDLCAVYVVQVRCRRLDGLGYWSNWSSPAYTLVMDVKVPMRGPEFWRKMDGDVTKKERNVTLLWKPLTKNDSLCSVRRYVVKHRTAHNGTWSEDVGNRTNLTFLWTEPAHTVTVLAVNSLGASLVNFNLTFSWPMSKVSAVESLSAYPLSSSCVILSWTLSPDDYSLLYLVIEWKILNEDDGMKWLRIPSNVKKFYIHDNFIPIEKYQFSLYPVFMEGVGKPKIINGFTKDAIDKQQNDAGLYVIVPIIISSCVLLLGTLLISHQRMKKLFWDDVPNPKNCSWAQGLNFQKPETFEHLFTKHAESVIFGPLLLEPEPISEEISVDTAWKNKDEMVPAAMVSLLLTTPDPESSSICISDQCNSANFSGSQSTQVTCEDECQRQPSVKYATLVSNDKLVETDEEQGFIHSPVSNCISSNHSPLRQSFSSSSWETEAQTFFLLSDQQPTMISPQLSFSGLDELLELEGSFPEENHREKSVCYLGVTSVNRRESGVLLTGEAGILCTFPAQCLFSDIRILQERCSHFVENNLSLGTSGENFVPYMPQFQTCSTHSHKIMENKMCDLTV

[2] = biological target: murine leptin receptor, long isoform, Y1077F (mouse), P48356; assay: cell-based or functional assay
murine leptin receptor, long isoform, Y1077F (mouse), P48356, sequence (P48356 22-1162 Y1077F): as the sequence (P48356 22-1162) above, with Y1056F counted along it

[3] = biological target: murine leptin receptor, long isoform, Y985F (mouse), P48356; assay: cell-based or functional assay
murine leptin receptor, long isoform, Y985F (mouse), P48356, sequence (P48356 22-1162 Y985F): as the sequence (P48356 22-1162) above, with Y964F counted along it

leptin receptor [4] = assay: Leptin-induced pGL3-rPAP1-luci reporter induction in PC12 LR8 cells transiently expressing SOCS3; assay type: cell-based, mouse; settings: leptin 24 hours
Description: FIG. 1: Expression of SOCS3 leads to inhibition of leptin-induced rPAP1 expression in PC12 cells. PC12 LR8 cells were co-transfected with a plasmid encoding SOCS3 (pMET7fSOCS3) or empty vector (mock, pMET7), and a pGL3-rPAP11 reporter construct. Forty-eight hours after transfection, the cells were stimulated with leptin or left untreated. Luciferase activity was measured in triplicate after 24 hours. CPS: absolute luminescence counts per second; NS: nonstimulated negative control.
Culture conditions and transient transfection procedures for PC12 and generation of the PC12LR8 cell line were as previously described. (Eyckerman et al., 1999; Waelput et al., 2000.)
(§1) Luciferase assays, binding assays using Leptin-SEAP and Northern blot hybridizations with SOCS3 and actin probes were described previously by Eyckerman et al. (1999). β-galactosidase activity was measured using the Galacto-Star™ chemiluminescent detection kit (Tropix) and a Topcount Chemiluminescence Counter (Packard).
Through representational difference analysis, a PCR-based differential expression screening in PC12 cells expressing the mouse leptin receptor, several leptin-induced transcripts (including SOCS3) were identified. In order to check the inhibitory role of SOCS3 on leptin signaling in the cell systems used, an expression vector containing rat SOCS3 was generated. […]

leptin receptor [5] = assay: rPAP1-luciferase reporter assay of leptin signalling in HEK293T cells co-transfected with leptin receptor variants and SOCS3; assay type: cell-based, murine; settings: 24 hours leptin
Description: HEK293T cells were maintained in a 10% CO2 humidified atmosphere at 37° C. and grown using DMEM with 4500 mg/l glucose, 10% fetal bovine serum and 50 μg/ml gentamycin (all from LifeTechnologies). Typically, 4×10^5 cells were seeded the day before transfection in a 6-well plate and transfected overnight with approximately 2 μg plasmid DNA using a standard calcium phosphate precipitation procedure. One day after transfection, cells were re-suspended with Cell Dissociation Agent (LifeTechnologies), seeded in a black well plate (Costar) and stimulated overnight with […] leptin or left unstimulated.
as §1
Based on its functional similarity with the gp130 chain, the leptin receptor was tested for interaction with SOCS3. Leptin receptor variants containing Y to F mutations at positions Y985, Y1077, or at both sites, were tested in a functional assay based on rPAP1-induction. Signalling via the leptin receptor variants was analyzed upon transient transfection in HEK293T cells with the pXP2d2-rPAP11uci and the FLAG-tagged pMET7-fSOCS3 expression construct. Luciferase activity data were normalized by co-transfection with pUT651 and a β-galactosidase activity assay.
Expression of leptin receptor variants and SOCS3 were confirmed, respectively, by a binding assay using a leptin-SEAP fusion protein and Western blot analysis using an anti-FLAG antibody (FIG. 3). LR expression levels were measured on transfected cells by incubation for 90 minutes with Leptin-SEAP fusion protein with or without excess leptin (100×). The transfected cells were stimulated for 24 hours with leptin or left untreated. Luciferase measurements were performed in triplicate and were normalized by co-transfection with the pUT651 β-galactosidase construct and a β-galactosidase activity assay. The results indicated a strong inhibitory activity of SOCS3 (80-90% inhibition) when the wild-type or the mutant Y1077F leptin receptor was expressed, and a moderate inhibition (30-50% inhibition) upon expression of a Y985F receptor variant.

Molecule: biotin-QRQPSVK(p)Y985ATLVSNDK (SEQ ID NO:7) [non-phosphorylated peptide]
- binding of SOCS3 to peptide (Western blot, anti-FLAG antibody) (FLAG-tagged SOCS3): did not bind any SOCS3 protein

Molecule: biotin-QRQPSVK(p)Y985ATLVSNDK (SEQ ID NO:7) [phosphorylated Y985 peptide]
- binding of SOCS3 to peptide (Western blot, anti-FLAG antibody) (FLAG-tagged SOCS3): clear and specific binding

Molecule: biotin-NHREKSVC(p)Y1077 LGVTSVNR (SEQ ID NO:8) [phosphorylated Y1077 peptide]
- binding of SOCS3 to peptide (Western blot, anti-FLAG antibody) (FLAG-tagged SOCS3): binds specifically to the phosphorylated Y1077 peptide, but apparently with a much lower affinity

- inhibition of leptin-induced rPAP1 luciferase reporter [1]: 80 to 90 % inhibition
- inhibition of leptin-induced rPAP1 luciferase reporter [2]: 80 to 90 % inhibition
- inhibition of leptin-induced rPAP1 luciferase reporter [3]: 30 to 50 % inhibition
B1: FLAG-tagged rat SOCS3 (expressed from pMET7fSOCS3), O88583 1-225 (protein)
chain: MDYKDDDDKMVTHSKFPAAGMSRPLDTSLRLKTFSSKSEYQLVVNAVRKLQESGFYWSAVTGGEANLLLSAEPAGTFLIRDSSDQRHFFTLSVETQSGTKNLRIQCEGGSFSLQSDPRSTQPVPRFDCVLKLVHHYMPPPGAPSFSLPPTEPSFEVQEQPPAQALPGGTPKRAYYIYSGGEKIPLVLSRPLSSNVATLQHLCRKTVNGHLDSYEKVTQLPGPIREFLDQYDAPL
- inhibition of leptin-mediated reporter induction (leptin receptor [4]): marked inhibition
- inhibition of leptin signalling (rPAP1 luciferase) (leptin receptor [5]; Y985F receptor variant): 30-50 % inhibition
- inhibition of leptin signalling (rPAP1 luciferase) (leptin receptor [5]; double Y985/1077F mutant): no inhibition was observed
- inhibition of leptin signalling (rPAP1 luciferase) (leptin receptor [5]; mutant Y1077F leptin receptor): 80-90 % inhibition
- inhibition of leptin signalling (rPAP1 luciferase) (leptin receptor [5]; wild-type leptin receptor): 80-90 % inhibition
